This note sets out measurements from patent US11639503B2, “Anti-chymase aptamer and use for same” (RIBOMIC INC., priority 2017, dated 2023).

Oligonucleotides are written 5' to 3', each unit as a sugar letter and its base; * is a phosphorothioate linkage, no mark a phosphodiester; rarer units and linkages stand in square brackets, end groups in braces. Plain capitals give the bases only. r = 2'-OH (RNA); f = 2'-fluoro

The target in data set [1] is T1, chymase (recombinant, manufactured by SIGMA) (Homo sapiens, UniProt P23946).
T1 construct: purchased SIGMA
T1 sequence (P23946 22-247): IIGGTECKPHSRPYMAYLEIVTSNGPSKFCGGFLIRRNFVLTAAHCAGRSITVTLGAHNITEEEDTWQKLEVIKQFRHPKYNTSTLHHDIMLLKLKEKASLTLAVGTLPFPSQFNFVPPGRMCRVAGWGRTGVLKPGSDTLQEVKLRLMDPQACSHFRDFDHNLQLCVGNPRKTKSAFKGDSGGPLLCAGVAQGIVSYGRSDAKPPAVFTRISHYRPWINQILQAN
The data set is described as follows: chymase enzyme activity inhibition, synthetic substrate Suc-Ala-Ala-Pro-Phe-MCA. It counts as biochemical. The settings on record: Table 1; substrate Suc-Ala-Ala-Pro-Phe-MCA 100 μM, chymase 0.05 μg (16.7 nM), 37° C.; mean of 2 or 3 measurements. On the procedure: A first method employs a synthetic substrate. A useful chymase substrate is Suc-Ala-Ala-Pro-Phe-MCA (4-methylcoumaryl-7-amide group) (manufactured by Peptide Institute, Inc.), which contains the 4-amino acid peptide “Ala-Ala-Pro-Phe” (SEQ ID NO: 41), a standard substrate for chymotrypsin-like proteases.
The assay is performed using a 96-well plate (F16 Black Maxisorp Fluoronunc, manufactured by Nunc), with a reaction mixture volume of 100 μL, in a buffer solution (solution C; see Example 2 below). First, each nucleic acid is prepared in solution C to obtain 50 μL solutions. After 10 μL of the 1 mM substrate prepared in solution C is added, the plate is set to the microplate reader SpectraMax190 (manufactured by Molecular Devices Corporation), and incubated at 37° C. for 5 minutes. Separately, 0.05 μg of chymase (recombinant, manufactured by SIGMA) is diluted in solution C, and 40 μL of this dilution is incubated at 37° C. for 5 minutes. The chymase solution is added to the mixture of the nucleic acid and substrate to initiate an enzyme reaction. The plate containing the reaction mixture is set to the microplate reader SpectraMax190 (manufactured by Molecular Devices Corporation), and examined for time-dependent changes in the fluorescence intensity at 37° C. for 5 minutes (excitation wavelength 380 nm, detection wavelength 460 nm). A linear approximation of the increase in the fluorescence of the AMC (7-amino-4-methylcoumarine) released from the substrate by chymase activity is generated, and its slope is taken as the initial reaction velocity. For control, samples are treated and analyzed in the same manner in two cases: use of a nucleic acid pool containing a random sequence of 30 or 40 nucleotides (negative control), and use of chymostatin, a known chymotrypsin-like serine protease inhibitor (positive control). Taking the initial reaction velocity without the nucleic acid and inhibitor as a 100% enzyme activity, the inhibitory rate for each test substance is calculated, and the inhibitor concentration required to cause a 50% inhibition of the enzyme activity (IC50) is determined.
Whether the nucleic acids shown by SEQ ID NO: 1-8 inhibit the enzyme activity of chymase was determined as described below. The chymase substrate used was Suc-Ala-Ala-Pro-Phe-MCA (manufactured by Peptide Institute, Inc.), which contains the 4-amino-acid peptide Ala-Ala-Pro-Phe, a standard substrate for chymotrypsin-like proteases. Here, Suc is a protecting succinyl group, and MCA is a 4-methylcoumaryl-7-amide group; upon cleavage of the C-terminal side of phenylalanine, AMC (7-amino-4-methylcoumarine) is released. By detecting the fluorescence of this AMC, the enzyme activity of chymase can be determined. The assay was performed using a 96-well plate (F16 Black Maxisorp Fluoronunc, manufactured by Nunc), with a reaction mixture volume of 100 μL, in solution C as a buffer solution. Here, the solution C is a mixed solution of 145 mM sodium chloride, 5.4 mM potassium chloride, 1.8 mM calcium chloride, 0.8 mM magnesium chloride, 20 mM Tris (pH 7.6), and 0.05% Tween20. First, nucleic acid was serially diluted in solution C to obtain 50 μL solutions. After 10 μL of the 1 mM substrate prepared in solution C was added thereto, the plate was set to the microplate reader SpectraMax190 (manufactured by Molecular Devices Corporation), and incubated at 37° C. for 5 minutes. […] The chymase solution was added to the mixture of the nucleic acid and substrate to initiate an enzyme reaction. The final chymase concentration in the reaction mixture was 16.7 nM, the final substrate concentration being 100 μM. The plate containing the reaction mixture was set to the microplate reader SpectraMax190 (manufactured by Molecular Devices Corporation), and examined for time-dependent changes in the fluorescence intensity at 37° C. for 5 minutes (or 30 minutes) (excitation wavelength 380 nm, detection wavelength 460 nm). […]

In data set [2] the target is T2, chymase purified from human skin mast cell (native, Calbiochem) (Homo sapiens, UniProt P23946).
T2 construct: Here, the native is chymase purified from human skin mast cell; purchased Calbiochem; host or cells: human skin mast cell (tissue-derived)
T2 sequence (P23946 22-247): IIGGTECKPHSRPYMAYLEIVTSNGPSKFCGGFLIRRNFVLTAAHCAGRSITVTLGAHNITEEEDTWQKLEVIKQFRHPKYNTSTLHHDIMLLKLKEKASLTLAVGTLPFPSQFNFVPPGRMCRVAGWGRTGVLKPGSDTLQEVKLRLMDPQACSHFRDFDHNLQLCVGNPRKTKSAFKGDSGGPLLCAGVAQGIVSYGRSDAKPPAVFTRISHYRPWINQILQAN
Put plainly: chymase enzyme activity inhibition, native substrate angiotensin I (His-Leu fluorescence). It counts as biochemical. The following applies: mean of 2 or 3 measurements. The procedure, abridged:
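Native chymase (final 0.5 nM) was preincubated with serially diluted nucleic acid (0.0027–2 μM solutions) for 5 min at 37 °C, then reacted with angiotensin I (final 50 μM) in solution C for 90 min at 37 °C and stopped with TCA. Released His-Leu was derivatized with o-phthalaldehyde and read by fluorescence (ex 355/em 460 nm). IC50 calculated relative to a no-inhibitor reaction.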

On to `CC(C)C[C@H](NC(=O)[C@@H](NC(=O)N[C@@H](Cc1ccccc1)C(=O)O)[C@@H]1CCN=C(N)N1)C(=O)N[C@H](C=O)Cc1ccccc1` [chymostatin, reference compound], for which the IC50 (as a rule, the concentration needed to halve the response being measured) fell in the range of 100 to 200 nM in data set [1] and 350 to 500 nM in data set [2] (Table 2, substrate angiotensin I 50 μM, chymase 0.5 nM, 37° C. 90 min).

B1: 2 (nucleic acid)
chain: rGrGrGrArGfCrArGrGrArGrArGrArGrGfUfCrArGrAfUrGrAfUfCrGrGrAfCrAfUrArAfCrAfUfUrGfUfUrGrGrGrGfUrGfUfCrArArGrGfCfCfUrAfUrGfCrGfUrGfCfUrArGfUrGfUrGrA
modifications: aptamer
For the molecule B1, the concentration for half-maximal inhibition (IC50) in data set [1] came to 31 nM; in data set [2] (Table 3, angiotensin I as substrate, >1 = no inhibitory activity up to 1 μM) it was 10 nM; in data set [2] (Table 4, angiotensin I as substrate), 10 nM; in data set [2] (Table 6, angiotensin I as substrate), 10 nM.
